Target: recombinant human α1A/βIII tubulin (human) (UniProt Q71U36)
Test: in vitro microtubule dynamics assay

critical concentration: 0.94 µM
koff: 3.2 s⁻¹
kon: 3.48e+06 M⁻¹ s⁻¹
Substance: recombinant human α1A/βIII tubulin (from UniProt Q71U36 1-451; Q13509 1-450) (complex)

Source: article PMC8476856
